# Test results from the supplement of paper PMC7877785.
# ± gives the uncertainty stated by the source.
# Test: self-splicing fitness, log relative to wild type (ln ratio); higher = more splicing; Tetrahymena group I intron in knt gene, E. coli kanamycin selection, DiMSum; sequences stand for … in CUCUCU…GGAGGGAAAAGUUAUCAGGCAUGCACCUGGUAGCUAGUCUUUAAACCAAUAGAUUGCAUCGGUUUAAAAGGCAAGACCGUCAAAUUGCGGGAAAGGGGUCAACAGCCGUUCAGUACCAAGUCUCAGGGGAAACUUUGAGAUGGCCUUGCAAAGGGUAUGGUAAUAAGCUGACGGACAUGGUCCUAACCACGCAGCCAAGUCCUAAGUCAACAGAUCUUCUGUUGAUAUGGAUGCAGUUCACAGACUAAAUGUCGGUCGGGGAAGAUGUAUUCUUCUCAUAAGAUAUAGUCGGACCUCUCCUUAAUGGGAGCUAGCGGAUGAAGUGAUGCAACACUGGAGCCGCUGGGAACUAAUUUGUAUGCGAAAGUAUAUUGAUUAGUUUUGGAGUACUCGUGGUCG
# Procedure, shortened: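 Fitness was computed with DiMSum as the error-weighted combination of replicate fold changes, kanamycin versus none, each normalised to wild type. The library randomised all eight intron nucleotides of the P1ex region, with the intron placed in the knt kanamycin-resistance gene on pET-22b(+) in E. coli BL21(DE3). Six replicate transformations were grown overnight at 37°C or 30°C on LB agar with or without 25 μg/mL kanamycin, plus 100 μg/mL carbenicillin, 50 μM IPTG and 0.2% rhamnose. Pooled colonies were amplicon-sequenced on an Illumina HiSeq 2500.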
Sequence,self-splicing fitness (ln) (30 °C),self-splicing fitness (ln) (37 °C)
GGAAAGCAAUAUUACGAGAG,-4.25 ± 0.26,-0.533 ± 0.1
GGAAAGCAAUAUUACGAGGU,-3.65 ± 0.17,-2.87 ± 0.25
GGAAAGCAAUAUUACGAUAC,0.424 ± 0.17,-0.511 ± 0.35
GGAAAGCAAUAUUACGAUCC,-3.2 ± 0.39,–
GGAAAGCAAUAUUACGAUCG,-0.227 ± 0.084,-0.145 ± 0.12
GGAAAGCAAUAUUACGAUGU,-1.69 ± 0.094,-0.262 ± 0.13
GGAAAGCAAUAUUACGCACA,-0.416 ± 0.091,0.0226 ± 0.14
GGAAAGCAAUAUUACGCCGU,-1.5 ± 0.26,0.351 ± 0.28
GGAAAGCAAUAUUACGCGCC,-3.03 ± 0.49,-2.17 ± 0.42
GGAAAGCAAUAUUACGCGGG,-2.64 ± 0.18,-1.5 ± 0.18
GGAAAGCAAUAUUACGCGUC,-3.58 ± 0.22,-2.89 ± 0.23
GGAAAGCAAUAUUACGCUCG,-0.352 ± 0.15,0.329 ± 0.17
GGAAAGCAAUAUUACGGAAA,-2.04 ± 0.22,-1.25 ± 0.24
GGAAAGCAAUAUUACGGAAG,-4.32 ± 0.22,-1.93 ± 0.15
GGAAAGCAAUAUUACGGCCU,-1.71 ± 0.15,-0.809 ± 0.21
GGAAAGCAAUAUUACGGCUG,-0.471 ± 0.12,-0.348 ± 0.17
GGAAAGCAAUAUUACGGGCC,-2.41 ± 0.23,-2.16 ± 0.32
GGAAAGCAAUAUUACGGGGU,-3.1 ± 0.22,-3 ± 0.28
GGAAAGCAAUAUUACGGUAA,-1.62 ± 0.15,-0.544 ± 0.12
GGAAAGCAAUAUUACGGUCA,-0.418 ± 0.09,0.154 ± 0.1
GGAAAGCAAUAUUACGUGUG,-2.41 ± 0.087,-0.505 ± 0.078

Sequence,self-splicing fitness (ln) (30 °C),self-splicing fitness (ln) (37 °C)
GGAAAGCAAUAUUACGUUGA,-2.31 ± 0.081,-1.27 ± 0.084
GGAAAGCAAUAUUACGUUUA,-1.89 ± 0.11,-1.16 ± 0.11
GGACAGCAAUAUUACGAAUA,-1.69 ± 0.13,-0.937 ± 0.13
GGACAGCAAUAUUACGACUA,0.148 ± 0.12,-0.612 ± 0.12
GGACAGCAAUAUUACGACUC,-0.16 ± 0.078,0.231 ± 0.097
GGACAGCAAUAUUACGACUU,-0.232 ± 0.085,1.19 ± 0.1
GGACAGCAAUAUUACGAGGC,-2.17 ± 0.14,-1.32 ± 0.2
GGACAGCAAUAUUACGAUGC,0.225 ± 0.075,0.446 ± 0.09
GGACAGCAAUAUUACGCCCU,-3.25 ± 0.2,-0.306 ± 0.14
GGACAGCAAUAUUACGCGGU,-4.03 ± 0.23,-1.6 ± 0.15
GGACAGCAAUAUUACGCGUG,-1.17 ± 0.065,-0.234 ± 0.074
GGACAGCAAUAUUACGCUAA,-0.66 ± 0.1,-0.339 ± 0.12
GGACAGCAAUAUUACGCUUU,-1.39 ± 0.065,-0.538 ± 0.087
GGACAGCAAUAUUACGGAGU,-1.61 ± 0.12,-1.12 ± 0.11
GGACAGCAAUAUUACGGAUG,-3.44 ± 0.16,-0.131 ± 0.11
GGACAGCAAUAUUACGGUGG,-1.71 ± 0.11,-1.53 ± 0.14
GGACAGCAAUAUUACGUAAC,-0.0173 ± 0.1,-0.0671 ± 0.14
GGACAGCAAUAUUACGUACU,-1.22 ± 0.097,-0.317 ± 0.1
GGACAGCAAUAUUACGUAUA,-0.645 ± 0.1,-0.388 ± 0.095
GGACAGCAAUAUUACGUCCA,-1.24 ± 0.13,-0.889 ± 0.16
GGACAGCAAUAUUACGUGAC,-1.07 ± 0.081,-1.23 ± 0.13
